Article PMC12757481, “The dihydropyridine LA1011 modulates multiple Hsp90—co-chaperone interactions relevant to Alzheimer’s disease” (Cell Stress & Chaperones, 2025)
Values joined by “and” are separate entries in the source; they are usually repeats but may differ in a detail not shown here. Identical values can stand only once. Like-named read-outs stand apart in the source and are kept apart here.

B1: FKBP52: Hsp90 co-chaperone, TPR domain-containing protein (protein, UniProt Q02790 1-459, looked up)
Peptidyl-prolyl cis-trans …: MTAEEMKATESGAQSAPLPMEGVDISPKQDEGVLKVIKREGTGTEMPMIGDRVFVHYTGWLLDGTKFDSSLDRKDKFSFDLGKGEVIKAWDIAIATMKVGEVCHITCKPEYAYGSAGSPPKIPPNATLVFEVELFEFKGEDLTEEEDGGIIRRIQTRGEGYAKPNEGAIVEVALEGYYKDKLFDQRELRFEIGEGENLDLPYGLERAIQRMEKGEHSIVYLKPSYAFGSVGKEKFQIPPNAELKYELHLKSFEKAKESWEMNSEEKLEQSTIVKERGTVYFKEGKYKQALLQYKKIVSWLEYESSFSNEEAQKAQALRLASHLNLAMCHLKLQAFSAAIESCNKALELDSNNEKGLFRRGEAHLAVNDFELARADFQKVLQLYPNNKAAKTQLAVCQQRIRRQLAREKKLYANMFERLAEEENKAKAEASSGDHPTDTEMKEEQKSNTAGSQSQVETEA
B2: Sgt1: yeast Sgt1 (amino acid residues 1-280), Hsp90 co-chaperone (protein, UniProt Q08446 1-280, looked up, fragment)
chain: MPVEKDLKTAYKALYDEKEPLKALHLYDEILKGSPTNLTALIFKAACLEKLYFGFSDWHSDATMENAKELLDKALMTAEGRGDRSKIGLVNFRYFVHFFNIKDYELAQSYFKKAKNLGYVDDTLPLWEDRLETKLNKKNKKQKDSTNKHTIKPVESIENRGDNNSSHSPISPLKIETAPQESPKFKIDWYQSSTSVTISLFTVNLPESKEQVNIYISPNDRRTLSISYQVPKSGSEFQYNAKLSHEVDPKAVSLKIFPKKLEITLSKIDSTQWKKLEEDI
B3: CHIP: mouse CHIP, Hsp90-dependent E3 ubiquitin ligase co-chaperone, dimeric (protein, UniProt Q9WUD1 1-304, looked up)
E3 ubiquitin-protein ligase …: MKGKEEKEGGARLGTGGGGSPDKSPSAQELKEQGNRLFVGRKYPEAAACYGRAITRNPLVAVYYTNRALCYLKMQQPEQALADCRRALELDGQSVKAHFFLGQCQLEMESYDEAIANLQRAYSLAKEQRLNFGDDIPSALRIAKKKRWNSIEERRIHQESELHSYLTRLIAAERERELEECQRNHEGHEDDGHIRAQQACIEAKHDKYMADMDELFSQVDEKRKKRDIPDYLCGKISFELMREPCITPSGITYDRKDIEEHLQRVGHFDPVTRSPLTQEQLIPNLAMKEVIDAFISENGWVEDY
B4: TPR domain of PP5: PP5-TPR domain (amino acid residues 1-177) (protein, UniProt P53041 1-177, looked up, fragment)
chain: MAMAEGERTECAEPPRDEPPADGALKRAEELKTQANDYFKAKDYENAIKFYSQAIELNPSNAIYYGNRSLAYLRTECYGYALGDATRAIELDKKYIKGYYRRAASNMALGKFRAALRDYETVVKVKPHDKDAKMKYQECNKIVKQKAFERAIAGDEHKRSVVDSLDIESMTIEDEYS
modifications: TPR domain

Columns and labels:
Hsp90 [1] = molecular target: T1, Hsp90 (Saccharomyces cerevisiae, UniProt P02829); experiment: ITC, co-chaperone binding to Hsp90; parameters: species or system yeast
T1 construct: made in house
T1 sequence (P02829 whole entry): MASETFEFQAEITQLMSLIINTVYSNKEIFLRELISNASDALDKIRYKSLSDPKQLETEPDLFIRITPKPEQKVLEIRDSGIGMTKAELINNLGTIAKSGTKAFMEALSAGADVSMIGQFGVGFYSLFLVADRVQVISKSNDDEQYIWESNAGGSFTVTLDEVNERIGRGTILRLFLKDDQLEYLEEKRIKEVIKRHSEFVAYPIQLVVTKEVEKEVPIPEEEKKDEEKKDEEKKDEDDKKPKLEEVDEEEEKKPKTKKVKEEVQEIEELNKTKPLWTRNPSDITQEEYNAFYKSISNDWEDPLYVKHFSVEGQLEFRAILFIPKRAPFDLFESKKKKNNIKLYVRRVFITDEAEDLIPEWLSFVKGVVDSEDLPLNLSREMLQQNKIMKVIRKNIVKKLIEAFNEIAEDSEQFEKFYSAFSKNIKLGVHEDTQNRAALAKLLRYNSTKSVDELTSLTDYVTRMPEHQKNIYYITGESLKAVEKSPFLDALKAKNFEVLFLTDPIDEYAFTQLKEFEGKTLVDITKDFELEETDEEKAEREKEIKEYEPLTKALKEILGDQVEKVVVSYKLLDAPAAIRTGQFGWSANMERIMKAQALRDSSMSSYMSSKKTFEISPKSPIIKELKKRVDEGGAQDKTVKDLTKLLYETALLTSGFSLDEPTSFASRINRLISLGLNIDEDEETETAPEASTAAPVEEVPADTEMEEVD
Description: (§1) The heat of interaction was measured on an ITC200 microcalorimeter (Microcal) under the same buffer conditions (20 mM Tris, pH 7.5, containing 5 mM NaCl), except for experiments using PP5, where we omitted EDTA and used 1 μM MnCl2. In experiments using nucleotide, we used 5 mM AMPPNP and 6 mM MgCl2. For experiments using Aha1 with AMPPNP the buffer contained 100 mM NaCl. Similarly, Sgt1 experiments also included 100 mM NaCl in the buffer. […] To assess co-chaperone binding to Hsp90 and Hsp90-LA1011 complex, we generally injected aliquots of co-chaperone at concentrations ranging from 200 to 400 μM into the microcell containing the Hsp90 or Hsp90-LA1011 complex at concentrations ranging from 20 to 30 μM of Hsp90 or Hsp90 in complex with 2 mM LA1011 at 30 °C. Heats of dilution were determined by diluting the injectant into the buffer. Data were fitted using a curve-fitting algorithm (Microcal Origin) either as a one-site binding event or as two independent binding sites as required.

Hsp90-LA1011 = molecular target: T2, Hsp90-LA1011 (Saccharomyces cerevisiae, UniProt P02829); experiment: ITC, co-chaperone binding to Hsp90-LA1011 complex; parameters: species or system yeast
T2 construct: made in house
T2 sequence (P02829 whole entry): as above
Description: as §1

Hsp90 [2] = molecular target: T1, Hsp90; experiment: Lactate-dehydrogenase and pyruvate-kinase-linked Hsp90 ATPase assay; assay type: biochemical, yeast; conditions: for effect of LA1011 on the co-chaperone directed regulation of Hsp90 ATPase activity: 2 μM Hsp90, 240 μM LA1011, co-chaperone 0.25 to 30 μM, normalized data compared with control lacking LA1011
Description: ATPase assays using 2 μM Hsp90 were conducted as previously described using the lactate-dehydrogenase and pyruvate-kinase-linked assay.[12] Briefly, 240 μM of LA1011 was used in assays as required. Co-chaperones were added to Hsp90 and Hsp90-LA1011 complex at a variety of concentrations ranging from 0.25 to 30 μM. Assays utilizing LA1011 were normalized by recalculating the activity for all data points so that the data points were converted to a percentage of the activity relative to the first data point, which lacked any addition of co-chaperone. The first data point was therefore 100% max Hsp90 activity. All assays were conducted at least in triplicate.
To assess the effect of LA1011 on the mechanistic action of co-chaperones, we used the lactate-dehydrogenase and pyruvate-kinase-linked Hsp90 ATPase assay. We first assessed the effect of each co-chaperone on Hsp90 ATPase activity and then compared its effect on a Hsp90-LA1011 complex.

[3] = ITC 30 °C, co-chaperone and Hsp90 without LA1011, one-site fit, read-out: Kd
[4] = ITC 30 °C, Hsp90 in complex with 2 mM LA1011, one-site fit, read-out: Kd

Molecule	Kd (Hsp90 [1]; ITC, Hsp90 without LA1011, two-site fit, value listed first in Table 2 and figures, read-out: Kd (two-site fit, first value listed)) [nM]	Kd (Hsp90 [1]; ITC, Hsp90 without LA1011, two-site fit, value listed second in Table 2 and figures, read-out: Kd (two-site fit, second value listed))	Kd (Hsp90-LA1011; ITC, Hsp90 with 2 mM LA1011, two-site fit, value listed first in Table 2 and figures, read-out: Kd (two-site fit, first value listed)) [nM]	Kd (Hsp90-LA1011; ITC, Hsp90 with 2 mM LA1011, two-site fit, value listed second in Table 2 and figures, read-out: Kd (two-site fit, second value listed))	Kd (Hsp90 [1]; [3]) [nM]	Kd (Hsp90-LA1011; [4]) [nM]	effect of LA1011 on the co-chaperone directed regulation of Hsp90 ATPase activity (Hsp90 [2])	effect on Hsp90 ATPase activity (Hsp90 [2]; 2 μM Hsp90)
B1	~620	~620 nM and 620 nM	2800	~200 nM and 200 nM				
B2					16200	13600	unaffected by the presence of LA1011	
B3					80	1440	LA1011 affects CHIP’s ability to inhibit Hsp90 ATPase activity	inhibitor of the ATPase activity of Hsp90
B4							small but significant effect	
